Assay results from patent US20260069707A1, “COMBINATION THERAPY WITH ANTIBODY-DRUG CONJUGATES AND HYALURONIDASES” (HALOZYME, INC., priority 2024, published 2026).

Conditions: pig, in vivo, sc
Description: Porcine serum was used as surrogate matrix to prepare calibration standards and quality controls for skin sample quantitation. Untreated blank porcine skin was provided for preparation of monitoring quality controls. The porcine skin was homogenized at an approximate ratio of 0.5 mL of buffer for every 100 mg of skin.
Porcine serum was used as surrogate matrix to prepare calibration standards and quality controls for the quantitation of skin samples. Supported liquid-liquid extraction was used for sample clean up. […] The porcine skin was homogenized at an approximate ratio of 0.5 mL of buffer for every 100 mg of skin.
Therefore, nominal time points were used for PK analyses. To estimate the serum concentration at time zero for intravenous (IV) data, a second-order polynomial regression was applied to the early serum time points (0.25, 1, and 2 hours). The intercept of the fitted polynomial curve was used as the extrapolated concentration at time zero. Skin concentration data (μg/mL) was normalized to total protein (mg/mL) per sample, resulting in values represented as μg/mg protein.
Pharmacokinetic parameters were calculated using noncompartmental methods performed in Microsoft Excel. The area under the concentration-time curve (AUC) was determined using the linear trapezoidal rule. For serum data, AUC0-7 was calculated using all available time points. For skin data, AUC1-7 was computed based on the three available time point measurements. The maximum observed concentration (Cmax) was identified directly from the dataset, and the time at which it occurred (Tmax) was recorded. All calculations were performed using Microsoft Excel.
This sample was divided vertically into two identical pieces. One skin sample was placed into a pre-weighed cryogenic tube and its weight was recorded then stored on dry ice prior to transfer to ≤−70° C. The other skin sample was processed for potential future histological assessment into OCT freezing media and frozen on dry ice.
Animals received two SC doses on their lower abdominal region.
Two cohorts were included in the follow-on study. […] Each animal had two full thickness skin biopsies taken post-mortem using a 12 mm punch. This sample was divided vertically into two identical pieces. One skin sample was placed into a pre-weighed cryogenic tube and its weight was recorded, then stored on dry ice prior to transfer to ≤−70° C. The other skin sample was processed into OCT molds for potential future histological assessment.
Tissue lysates were prepared based upon the weight of the sample at a ratio of 0.2 g/mL homogenization buffer (Tables 64 and 65). The total protein concentration of each homogenate was determined by BCA assay. The concentration of the total ADC (TADC), total antibody (TAB) and free payload (SN38) in each sample was then normalized to the protein concentration and reported in μg analyte per mg total protein.
In this initial study, six animals were used. […] Two cohorts were included in this study. Cohort 1 was euthanized 24 hours after treatment, while Cohort 2 was euthanized 48 hours after exposure to the two test solutions.

## Sacituzumab govitecan [Trodelvy]
  AUC(1-7) of free payload in tissue homogenates of injection site, Mean: 0.17 µg·days/mL
  AUC(1-7) of total ADC (TADC) in tissue homogenates of injection site, Mean: 18.55 µg·days/mL
  AUC(1-7) of total antibody (TAB) in tissue homogenates of injection site, Mean: 45.30 µg·days/mL
  Cmax of free payload in tissue homogenates of injection site, Mean: 180 ng/mL
  Cmax of total ADC (TADC) in tissue homogenates of injection site, Mean: 22860 ng/mL
  Cmax of total antibody (TAB) in tissue homogenates of injection site, Mean: 29410 ng/mL
  TADC/Free Payload, mean AUC(1-7): 10704%
  TADC/Free Payload, mean Cmax: 12800%
  TADC/TAB, mean AUC(1-7): 41%
  TADC/TAB, mean Cmax: 78%
  Total ADC Result: <0.100 µg/mL
